According to patent publication US20060057146A1:

How the values were obtained:
[1] = molecular target: recombinant ED-B domain of fibronectin (UniProt P02751); assay: 125I-labelled antibody on ED-B Sepharose column, bound against unbound radioactivity, before injection
[2] = molecular target: recombinant ED-B domain of fibronectin (UniProt P02751); assay: 125I-labelled antibody in mouse plasma 72 h after i.v. injection, ED-B Sepharose column
[3] = molecular target: recombinant ED-B domain of fibronectin (UniProt P02751); assay: 125I-labelled antibody in mouse plasma 24 h after i.v. injection, ED-B Sepharose column
[4] = molecular target: recombinant ED-B domain of fibronectin (UniProt P02751); assay: 125I-labelled antibody in mouse plasma 3 h after i.v. injection, ED-B Sepharose column
[5] = molecular target: recombinant ED-B domain of fibronectin (UniProt P02751); assay: 125I-labelled antibody in mouse plasma 144 h after i.v. injection, ED-B Sepharose column
[6] = molecular target: recombinant ED-B domain of fibronectin (UniProt P02751); assay: 125I-labelled antibody in mouse plasma 48 h after i.v. injection, ED-B Sepharose column
[7] = molecular target: recombinant ED-B domain of fibronectin (UniProt P02751); assay: 125I-labelled antibody in mouse plasma 6 h after i.v. injection, ED-B Sepharose column

scFv(L19), sequence (VH): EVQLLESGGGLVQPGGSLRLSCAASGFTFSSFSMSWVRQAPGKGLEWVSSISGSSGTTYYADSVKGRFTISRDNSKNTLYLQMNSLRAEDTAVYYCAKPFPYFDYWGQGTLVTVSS
scFv(L19), sequence (VL): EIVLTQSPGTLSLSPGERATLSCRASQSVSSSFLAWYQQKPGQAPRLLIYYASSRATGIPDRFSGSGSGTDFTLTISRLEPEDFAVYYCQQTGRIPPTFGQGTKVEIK
UniProt P02751, sequence (P02751 1266-1356 limits assumed): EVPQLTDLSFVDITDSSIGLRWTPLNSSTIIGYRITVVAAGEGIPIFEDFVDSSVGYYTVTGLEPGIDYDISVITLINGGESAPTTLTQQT

Row | Substance | immunoreactivity (percentage bound to ED-B Sepharose) [1] | Immunoreactivity (I), % of the value before i.v. injection [2] | Immunoreactivity (I), % of the value before i.v. injection [3] | Immunoreactivity (I), % of the value before i.v. injection [4] | Immunoreactivity (I), % of the value before i.v. injection [5] | Immunoreactivity (I), % of the value before i.v. injection [6] | Immunoreactivity (I), % of the value before i.v. injection [7]
1 | L19 small immunoprotein (L19-SIP) (from UniProt P01854 319-426) | > 90% | – | – | – | – | – | –
2 | scFv(L19) | > 90% | 9% | 27% | 36% | 4% | 14% | 32%
